Measurements published in US20240228592A1 (BIO THERA SOLUTIONS, published 2024).

Biological target: T1, spike-RBD-mFC (sino biologicals) (SARS-COV-2, UniProt P0DTC2 319-541)
T1 construct: domain: RBD; also called spike protein in SARS-COV-2
Assay: ELISA, spike-RBD-mFC coated, anti-human kappa light chain-peroxidase detection

B1: antibody 9 (antibody, V domains shown)
VH: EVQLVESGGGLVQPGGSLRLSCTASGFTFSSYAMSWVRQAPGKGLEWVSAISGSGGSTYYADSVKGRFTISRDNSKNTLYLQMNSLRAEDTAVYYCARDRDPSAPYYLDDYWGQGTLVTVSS
VL: DIQMTQSPSSLSASVGDRVTITCRASQGISSYLAWYQQKPGKAPKLLIYAASSLQSGVPSRFSGSGSGTDFTLTISSLQPEDFATYYCQQHYTTPPTFGQGTKVEIKR
  EC50: 2.76 nM
